Target: thermostable exoshell tES(+)F116H
Test: AUC

stoichiometry N (HRP molecules per tES shell): 2
Substance: horseradish peroxidase (from UniProt P00433 31-338) (enzyme)

Source: article PMC9333347
